Results reported in the DeepSol protein solubility set.

Experiment: soluble on expression in E. coli; label from the status in PepcDB or PDB records

| Sequence | soluble on expression in E. coli |
| --- | --- |
| MRTEKEMIDLIMNTAKEDERIRAVIMNGSRVNPNVKKDCFQDFDIIYAVKDIRSFTSNHNWIHRFGEIMIVQMPEEMSLIPADEDGKFPYLMQFMDGNRIDLTLAPVELINNFVRQDSLSKLLLDKDNCMEGFPPASDKDYLIKKPTEKEFLDCCNEFWWCSTNVAKGLWREELSYVKGMLDGPVRDMLIVMLEWHIGMKTDFIVNAGKFGKHFEKYIEKDMWVQFKRTFSNAEYENIWESFFDMGNLFREVANEIANAYGYPYPQGDDDRVTSYLKHVKALPKDSTSIY | not soluble |
| MRTKDIYRLELRKIKIDKRMMKRILRLGIPSGIQQSIISLSNVVVQANVNIFGSTVMAGFGAYNKVDGFVVLPMQSFCMAATTFTGQNIGAGKPERIREG | not soluble |
| MRTLITGASGQLGIELSRLLSERHEVIKVYNSSEIQGGYKLDLTDFPRLEDFIIKKRPDVIINAAAMTDVDKCEIEKEKAYKINAEAVRHIVRAGKVIDSYIVHISTDYVFDGEKGNYKEEDIPNPINYYGLSKLLGETFALQDDSLIIRTSGIFRNKGFPIYVYKTLKEGKTVFAFKGYYSPISARKLASAILELLELRKTGIIHVAGERISRFELALKIKEKFNLPGEVKEVDEVRGWIAKRPYDSSLDSSRARKILSTDFYTLDLDGMVV | soluble |
| MRTLRIAQYSVLTVGFAIYMYRLIEEIPIDIRNLNSDSLEGIINSDELCDVTVSNRNRGLLVRNDSLDLDILKAKFTTFFSKR | not soluble |
| MRTTYREHLDAFAQDLITMCDTVAAVVEGASTGLLEGSLQSAQHALSLSDELDEVKNRATKRAVQLLSLEAPVARDLRQIVSSIYIIEDFDRMASLAMHIASMARRRHPDLVVPEPIRGYFHEMARLCTEMSDKTRSVLVDPDADVAIVLAADDDAIDDIHEHIMTLLTKKEWPFSTRAAVEVTLLARYYERFADHTVNVAAQIVYLTTGLMPEEYKKKRDDGFEPDEMEARFAQLEEQFANYDWPKPAD | not soluble |
| MRVAFCLYKYFPFGGLQRDFMRIAQTVAARGHQVRVYTQSWEGECPDNFELIRVPVKSRTNHGRNAEYYAWVQHHLRDHPVDRVVGFNKMPGLDVYYAADVCYAEKVAQEKGFFYRLTSRYRHYAAFERATFEHGKPTQLLMLTNKQIADFQKHYQTEAERFHILPPGIYPDRKYSQQIPNSRQIYRQKNGISEQQKLLLQVGSDFTRKGVDRSIEALASLPESLRQNTVLYVVGQDKPKKFAALAERSGVGTNVHFFSGRNDIAELMAAADLLLHPAYQEAAGIVLLEAITAGLPVLTTAVCGYAHYIVDANCGEAMTEPFRQDALNEVLLKALTQPSLRNAWAENARYYADTQDLYSLPEKAADIITGDLDG | not soluble |
| MRVHKVKFLNQHELTKLLALLDLDHGLDWDYFLLLIAKTGLRFGEALGVTPMDFDMAKLTLTINKTWDYKSATGSFAETKNTASVRKVPLDWQVAMQFAAQIKSLPQDKPIFVTDGQRVYNETANDILERKCKRASIPVISIHGLRHTHASLLLYAGVSVGSVARRLGHANMSTTQKTYLHILEHHHHHH | not soluble |
| MRVVVTGATGFVGQQVVKALSDRGDQVVALVRSPGKAAKQFAGVPRVEWLGYTPKAAGDWFSALEGADAVIHLAGEPLANGRWTPQRKQEIYDSRVVGTQQLVQAIAQCQQRPRVLVSTSAIGYYGTSDTETFVETHAAGNDFLAKVCGDWEAAAQGVTELGVRLVILRFGIVLGEQGALAKLLLPFQLYLGGPLGSGQQWFSWIHQQDLVRLILTAVDQVGMQGVYNATAPEPLRMADFCRILAEVMQRPSWLPVPAPVLQLLLGEGADVVLKGQRVLPERTLATGFEFHYPNAKTALTNLLKPRYTEGSRLEHHHHHH | soluble |
| MRVVVVGTRGSALALAQTRFVVERLKETWPETEFKIRTIKTRGDQGASPREEAIFVKEIQEALLSREIDIAVHSLKDLPTESPRGLKIASVPRRQDPRDVFLGKAAKRLKDLPPGAVVGTSSVRRKAQILALRPDLVVRDLRGNVDTRLAALGNGEYDGIVLAAAGLIRLDLRNRIDEFLDPGEVLPAPGQGALALEVREGDDLAEELCYALHHPPSYHRVRAERAFLRGLGAGCLAPVGALAHVEEDGTLRLEGVLLTPDGKSFIRAEIEGDVSEAEELGLDLARDVLEQGGREILAQIR | soluble |
| MRWFLLIVVSALFLSGCMPEIYTHASTPSTIIADNETHIAGRYAFVDVQVLDEYGLPVSGEDVSFYVDGAFLGEATTDTSGVARIGFFSPSEKTYTFTAVAGGVSRSFDVSFTKPKWLFIVWMAADNNLYYYSEDDLSEMRNASGSVSVVVVYDGIGIGDGMLVLDESGNFQAVVGTMGIDFNSGSYTNLEAWLEMILNQFDADHYALVIWDHGSAWIGDSYYISTKVIGYDDFQGTAIAVSNLRKALENALSGDKLDILGFDACLMGSLEVIYELRNTADYIVASSFNEPAEGWDYSFLGEIAPDSTPLDVARMIVDSYREYYSSDTYQNELSLAVYDTSQVEVFVSDLNLFISDLKADLSKVDAVYSDVVKSYIDDYNQTVLVDLGDFIDRWVSSSRITTAPDLSSVVVYSYGEIAGKTLSFPISIFMPESMSCYQDYQTDYQTLSFPYDTQWDEFLEYWLNQKGGLEHHHHHH | not soluble |
| MRYLPIFVFLGSFGYTETTLTKELIKDAAEKCCTRNRQECCIEIMKFGTPIRCGYDRDPKLPGYVYKCLQNVLFAKEPKKKINLDDSVCCSVFGNDQNDSGRRCENRCKNLMTSPSIDAATRLDSIKSCSLLDNVLYKCFEKCRSLRKDGIKIEVLQFEEYCNATFIQKRTFRGV | not soluble |
| MSAALVAQQVATLREQGFAVVRNFASPPVRQALRELALQHLAQTVDPVEYEADLKYPGAPSSRLAAGGQTVRRLLDAYGRDQRFRDWATQAAIGAFLRAYFQDTPVLSTVHHNCIMTKHPAFGSLTGWHQDIRYWSFSDDDLVSCWLALGDERADNGGLYFVPGSHTASFMPEQYDARKFFRDDLPQNQEWIGRAVCPELQAGDVVFFHCRTLHAARQNATDTVKLSLVHTYHPASCHPLPGTRSAGSPGVPLPLEHHHHHH | not soluble |
| MSAEAVIENRDYTLMIDKSSSMATADDPNGPTRWEIAQASTIALAKKCEEIDSDGITVYLFSGRFRRYDNVTAEKVAYIYANNEPMGRTDLAGALKDGLDNFFQRRQAGQTKPNGETFLIITDGEPTDRKAVIRLILEASQKIDRDEELAISLIQVGRDKKATAFFQALDDQLQAAGAKFDIVDTVTMEDMQGMSLSDVLLKAITDLEHHHHHH | not soluble |
| MSAIKEVKSELRQFMKTLLGKISKEETQRQTEAVFEKIIESKWFQESKRLSVYVSTSGEIQTDSIIQKALEMGKEVFIPQFTKGSTAMDMVRVPDQTAFDNLPSTLWGIRQPEPKWKWQSYHETGPLDLILAPGVAFSPYGLRCGHGKGYYDRFFSTHHKHFPENSPKKIGLALREQIIGTIPISETDVELDEVIYEGETIIFDTI | soluble |
| MSAKNVLKMANRNSANKRDILGDLLSLSSNKTVNLNEMAHGQGKRKMASIDGQKENPKRIKMSQHMTAKEVKIPLLRTPDEEARKIEKLRREARIKRSKEVHYDAAEQQQIMMNYEWTVQMEEQEKLRKKVEKKH | not soluble |
| MSANDRRDRRVRVAVVFGGRSNEHAISCVSAGSILRNLDSRRFDVIAVGITPAGSWVLTDANPDALTITNRELPQVKSGSGTELALPADPRRGGQLVSLPPGAGEVLESVDVVFPVLHGPYGEDGTIQGLLELAGVPYVGAGVLASAVGMDKEFTKKLLAADGLPVGAYAVLRPPRSTLHRQECERLGLPVFVKPARGGSSIGVSRVSSWDQLPAAVARARRHDPKVIVEAAISGRELECGVLEMPDGTLEASTLGEIRVAGVRGREDSFYDFATKYLDDAAELDVPAKVDDQVAEAIRQLAIRAFAAIDCRGLARVDFFLTDDGPVINEINTMPGFTTISMYPRMWAASGVDYPTLLATMIETTLARGVGLH | soluble |
| MSANFTDKNGRQSKGVLLLRTLAMPSDTNANGDIFGGWIMSQMDMGGAILAKEIAHGRVVTVAVESMNFIKPISVGDVVCCYGQCLKVGRSSIKIKVEVWVKKVASEPIGERYCVTDAVFTFVAVDNNGRSRTIPRENNQELEKALALISEQPL | soluble |
| MSAPKRPKFSVGDIVVNTLYGTVGTITDIQQIDGTFLYEINHGHSLFAEQALILLSEFAGDLWIAEEIEIELPFFLGEIVRVRDYGGHLFKIVGVRTEIYRYYGEGWEETIYELKRLTDGWEIEVHLEDIIPLADGEETSVTLVQDIVIAAPVKASLLLPPADSGEKGPSVDELLDMYNDYKALYEWFGDEQYQRMMETVVKRLRTISDHQDRN | not soluble |
| MSASAETVAPEGYRKLLDVQIFKDSPVVGWSGSGMGELETIGDTLPVDTTVTYNGLPTLRLNVQTTVQSGWWISLLTLRGWNTHDLSQYVENGYLEFDIKGKEGGEDFVIGFRDKVYERVYGLEIDVTTVISNYVTVTTDWQHVKIPLRDLMKINNGFDPSSVTCLVFSKRYADPFTVWFSDIKITSEDNEKSAPAIKLEHHHHHH | soluble |
| MSATAKAPYSKTFIRSCILYEVLQKKPVFEAYQKICRSLKERISYQEFDYWFYKFYNGNHDLEDEISDEQSLVNPLLDMSNNLSEKEWCRSFVQFFHGLPPRPNKKPAFSLQSMPRKVWQELCSKLEPCDRLVAKKVTRRFRQTIDEQDNLFNTLGICFEDDKTRIFFNEKTFHYTSVGNECRITLDLFTKEDAIKIKDILTRSDNFKYANFESGNFDPIEIANVFIPNYQSNHWPIINYMRHNKKFLLKITPMTFQIKKID | not soluble |
| MSAVNRAAVEAVLRQYTDPYLNQDPVSAGCVRDIEVQGDRVTVRMELGYAAGLFKSGWAQMLQLAIEGLDGVSSAKVEISSVIAAHKAQAQIPGLANVKNVVAVASGKGGVGKSTTAANLALALAREGAKVGILDADIYGPSQGIMFGIAEGTRPKIKDQKWFVPIESHGVEVMSMAFLTDDNTPMVWRGPMVSGALLQLVTQTDWGNLDYLVIDMPPGTGDIQLTLAQKVPVAGAVIVTTPQDLALLDARKGVEMFRKVNIPVLGVVENMAVHICSNCGHAEHLFGEGGGEKLASQYDVELLASLPLSMLIREQADGGKPTVIAEPESQIAMVYQELARHVGARIVLQEAAAPAMPNITISDDLEHHHHHH | not soluble |
| MSCDGGKPAPAKLGDEQLAELREIFRSFDQNKDGSLTELELGSLLRSLGLKPSQDQLDTLIQKADRNNNGLVEFSEFVALVEPDLVKCPYTDDQLKAIFRMFDRDGNGYITAAELAHSMAKLGHALTAEELTGMIKEADRDGDGCIDFQEFVQAITSAAFDNAWG | soluble |
| MSDATLHNTTQDPDDFAVQIADQVESFLVAVTEVAKGDEPDSAVPFLLLEVSQLLLAGGRLGAHEDIVPDERYEPDMGPEPDVDELRERLATMLDPVDVYSEVFDPYEPRKAPVPARISDDLADVIADLRHGMAHYRAGRTTEALWWWQFSYFSNWGSTASATLRALQSLVAHVRLNQPLEELDGLDTDQDLSEDALAEEAGRVMASEIAGPLGLRTVRLEHHHHHH | soluble |
